{"source": "patent US8440413B2", "about": "“Method of screening for a substance that strengthens a bond between thioredoxin and macrophage migration inhibition factor” (Redox Bioscience, Inc., priority 2006, dated 2013)", "molecules": {"B1": {"name": "rTRX: Recombinant thioredoxin; His-tagged, expressed in Escherichia coli (Examples 5-7); from Ajinomoto in Examples 3-4 (protein)", "chain": "MVKQIESKTAFQEALDAAGDKLVVVDFSATWCGPCKMIKPFFHSLSEKYSNVIFLEVDVDDCQDVASECEVKCMPTFQFFKKGQKVGEFSGANKEKLEATINELV", "modifications": "left off: small tags and cut ends"}, "B2": {"name": "rDM TRX: the rTRX of Example 5 in which the cysteine residues at 32 and 35 positions were converted to serine (protein)", "chain": "B1 chain with C32S, C35S", "modifications": "left off: small tags and cut ends"}, "B3": {"name": "rC35S TRX: the rTRX of Example 5 in which the cysteine residue at 35 position was converted to serine (protein)", "chain": "B1 chain with C35S", "modifications": "left off: small tags and cut ends"}}, "key": {"[1]": {"target": "T1, bond between rTRX and rMIF (Homo sapiens, UniProt P10599)", "T1 construct": "His tag; made in house; host or cells: Escherichia coli", "T1 sequence (P10599 1-105)": "B1 chain", "assay": "Screening by molecular interaction analysis (Biacore, SPR) for substances that strengthen the bond between TRX and MIF, Example 7", "assay_type": "binding", "conditions": "analyte: rTRX 5 μM mixed with test substance 500 μM (Prostaglandin I2 also 5 μM); compared with rTRX only (FIGS. 7 to 11)", "procedure": "For several test substances, it was confirmed with a molecular interaction analysis whether they strengthened the bond between TRX and MIF or not. rMIF was immobilized in a CM5 sensor chip as a ligand. The ligand was adjusted to have the rMIF concentration of less or equal to 200 nM by using running buffer, 10 mM HEPES (pH7.4), 150 mM NaCl, 3 mM EDTA and 0.005% Tween 20. […] In each analyte, the concentration of rTRX was 5 μM and the concentration of the test substance was 500 μM. For Prostaglandin I2, the analyte having its concentration of 5 μM was also analyzed."}, "[2]": {"system": "ATL2 cells", "assay": "Inhibition of the cell internalization of MIF into ATL2 cells (Western blotting, densitometer)", "assay_type": "cell-based, human", "conditions": "rTRX 0 to 250 μg/ml, 25 μg/ml rMIF, 24 hours (FIG. 3)", "procedure": "MIF is internalized (incorporated) into cells by the autocrine or paracrine action to induce the production of inflammatory cytokine TNF-alpha(α) or IL-1. Thus, the effects of TRX on the cell internalization of MIF were examined to clarify the inflammation response control mechanism.\nATL2 cells were cultured with RPMI 1640 medium containing 10% FCS, 100 U/ml penicillin and 100 μg/ml streptomycin in a 75 cm^2 flask.\n1×10^6/cell of ATL2 cells were added to a 24 well plate. rTRX having the final concentration of 0 to 250 μg/ml and 25 μg/ml rMIF were also added thereto, and cultured under the condition of […] at 37° C. for 24 hours.\nAfter cells were collected, the precipitation was mixed with SDS-PAGE sample buffer, and then electrophoresed on a 15% SDS-PAGE gel. After the electrocataphoresis, a Western blotting was performed to detect MIF internalized in the cells with anti His-tagged antibody. The change of the band by the Western blotting was analyzed with a densitometer."}, "[3]": {"target": "T2, rMIF (Homo sapiens, UniProt P14174)", "T2 construct": "His tag; made in house; host or cells: Escherichia coli", "T2 sequence (P14174 1-115)": "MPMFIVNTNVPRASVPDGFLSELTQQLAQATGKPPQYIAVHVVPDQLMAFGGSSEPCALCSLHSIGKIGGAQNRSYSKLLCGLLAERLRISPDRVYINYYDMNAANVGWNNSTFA", "assay": "Molecular interaction analysis (Biacore, SPR) of the bond between rTRX and rMIF, Example 5", "assay_type": "binding", "conditions": "rMIF immobilized on CM5 sensor chip; rTRX 2 to 12 μM (FIG. 5)", "procedure": "The bond between TRX and MIF was confirmed with a molecular interaction analysis (Biacore) (hereinafter, referred to as “molecular interaction analysis”) utilizing surface plasmon resonance (SPR) phenomenon.\nrMIF was immobilized in a CM5 sensor chip as a ligand. The ligand was adjusted to include MIF less or equal to 200 nM by using running buffer, 10 mM HEPES (pH7.4), 150 mM NaCl, 3 mM EDTA and 0.005% Tween 20.\nThen, rTRX was used as an analyte to analyze the interaction between rTRX and rMIF. The concentration of rTRX was changed to 2 μM, 4 μM, 6 μM, 8 μM, 10 μM and 12 μM for the analysis."}, "[4]": {"target": "T2, rMIF", "assay": "Molecular interaction analysis (Biacore, SPR) of rTRX variants and rMIF in oxidation and reduction states, Example 6", "assay_type": "binding", "conditions": "for change of the dissociation constant value between oxidation state and reduction state: oxidation state versus reduction state; for Kd: rMIF immobilized on CM5 sensor chip, read-out: KD (dissociation constant value)", "procedure": "It was confirmed with a molecular interaction analysis whether the cysteine residues at 32 and 35 positions (the active site of TRX) affect the bond between TRX and MIF or not.\nrMIF was immobilized in a CM5 sensor chip as a ligand, wherein the concentration of rMIF was adjusted to less than or equal to 200 nM.\nThen, rWT TRX, rDM TRX and rC35S TRX were used as analytes to analyze the interaction between these rTRX and rMIF in both oxidation and reduction states, respectively.\nIn the oxidation state, running buffer, 10 mM HEPES (pH7.4), 150 mM NaCl, 3 mM EDTA and 0.005% Tween 20 were used to adjust the ligand. In the reduction state, 1M DTT was used in addition to the running buffer, 10 mM HEPES (pH7.4), 150 mM NaCl, 3 mM EDTA and 0.005% Tween 20 to adjust the ligand.\nTables 1 and 2 show the dissociation constant value (KD value) calculated from FIG. 6."}, "[5]": {"target": "T3, MIF (Homo sapiens, UniProt P14174)", "T3 construct": "endogenous in cells; host or cells: ATL2 cells (concentrated culture supernatant)", "T3 sequence (P14174 1-115)": "T2 sequence (P14174 1-115)", "assay": "Immunoprecipitation / Western blotting of the bond between TRX and MIF in cells", "assay_type": "cell-based", "conditions": "ATL2 cells and HL60 cells; anti MIF antibody immunoprecipitation, anti TRX Western blotting (FIG. 1)", "procedure": "The bonds between TRX and MIF in ATL2 cells and HL60 cells were confirmed with an immunoprecipitation method (to be described in detail below).\nThe cells were cultured with RPMI 1640 (SIGMA Inc.) medium containing 10% FCS, 100 U/ml penicillin and 100 μg/ml streptomycin in a 175 cm^2 flask.\n1×10^7˜8/cell of the cells were collected and centrifugated at 1,000 rpm and 4° C. for 15 minutes. The obtained precipitation was dissolved with lysis buffer and left on the ice for 30 minutes.\nThe solution was centrifugated at 1,000 rpm and 4° C. for 15 minutes. The obtained supernatant was used for the immunoprecipitation experiment. The concentration of the protein was measured with DC protein assay kit (BIO RAD Inc.).\n20 μl Protein G Sepharose and 500 μg of the cell solution were added to a microtube, and phosphate buffer was used to adjust the amount to 1 ml. The obtained solution was reacted at 4° C. for 3 hours with a small rotary incubator. The cell solution was centrifugated at 15,000 rpm and 4° C. for 2 minutes. The obtained supernatant was added to a new microtube, and 20 μl Protein G Sepharose and 4 μg/ml anti MIF antibody were also added thereto.\n(§1) For a control, anti Rabbit antibody was used instead of the anti MIF antibody.\nThe reaction was carried out with a small rotary incubator at 4° C. for overnight. The reaction solution was centrifugated at 15,000 rpm and 4° C. for 2 minutes. […]"}, "[6]": {"target": "T3, MIF", "assay": "Immunoprecipitation / Western blotting of the bond between TRX and MIF outside ATL2 cells (culture supernatant)", "assay_type": "binding", "conditions": "anti MIF antibody immunoprecipitation, anti TRX Western blotting (FIG. 2)", "procedure": "The bond between TRX and MIF outside ATL2 cells was confirmed with an immunoprecipitation method.\n1×10^5/cell of the ATL2 cells were cultured with RPMI 1640 (SIGMA Inc.) medium containing 100 U/ml penicillin and 100 μg/ml streptomycin in a 175 cm^2 flask for 3 days. Then, the medium was collected and centrifugated at 10,000 rpm and 4° C. for 15 minutes. Then, FCS was added to the obtained supernatant to adjust the final concentration to 10%, and the solution was concentrated with Amicon ultra-4. The obtained concentrated-solution was used for the immunoprecipitation experiment. 20 μl Protein G Sepharose and 30 μl of the culture supernatant were added to a microtube, and phosphate buffer was used to adjust the amount to 1 ml. The obtained solution was reacted at 4° C. for 3 hours with a small rotary incubator. The cell solution was centrifugated at 15,000 rpm and 4° C. for 2 minutes. The obtained supernatant was added to a new microtube, and 20 μl Protein G Sepharose and 4 μg/ml of the anti MIF antibody were also added thereto.\nas §1\nThe reaction was carried out with a small rotary incubator at 4° C. for overnight. The reaction solution was centrifugated at 15,000 rpm and 4° C. for 2 minutes. The precipitation was washed with washing buffer (50 mM Tris-HCl (pH7.5), 150 mM NaCl, 0.1% NP40). […]"}, "[7]": {"system": "RAW 264.7 cells", "assay": "Inhibition of MIF activity measured as TNF-alpha production in RAW 264.7 cells (ELISA)", "assay_type": "cell-based, mouse", "conditions": "MIF 10 ng/ml, 0 to 500 ng/ml TRX, LPS 100 ng/ml (FIG. 4)", "procedure": "TRX's inhibition of MIF activity was confirmed by measuring a concentration of inflammatory cytokine TNF-α (to be described in detail below).\nRAW 264.7 cells were cultured with RPMI 1640 medium containing 10% FCS, 100 U/ml penicillin and 100 μg/ml streptomycin in a 75 cm^2 flask.\nRAW 264.7 cells were added to a 24 well plate (1×10^6/cell). MIF having a final concentration of 10 ng/ml and 0 to 500 ng/ml TRX were also added thereto, and left under the condition of 5% CO2 at 37° C. for 4 hours.\nFurther, 100 ng/ml of LPS was added to the plate (described as LPS (+)), and the plate was left under the condition of 5% CO2 at 37° C. for 4 hours. Then, the medium was collected.\nAmount of the generated TNF-alpha (α) was measured with Duo Set ELISA Development system mouse TNF-α kit.\nThe measuring method was based on the protocol attached to the kit."}, "[8]": {"conditions": "reduction state (DTT added to running buffer)"}}, "note": "Numbering of substitutions follows the chain as printed. Read-outs that look alike come from different tables or passages of the source.", "data": [{"molecule": "N[C@@H](CCC(=O)N[C@@H](CSN=O)C(=O)NCC(=O)O)C(=O)O", "note": "[Nitrosoglutathione]", "values": [{"measurement": "effect of the test substance on the bond between rTRX and rMIF", "setting": "[1]", "value": "remarkably strengthen the bond between rTRX and rMIF"}]}, {"molecule": "CCCCC[C@H](O)/C=C/[C@@H]1[C@H]2C/C(=C/CCCC(=O)O)O[C@H]2C[C@H]1O", "note": "[Prostaglandin I2]", "values": [{"measurement": "effect of the test substance on the bond between rTRX and rMIF", "setting": "[1]", "value": "remarkably strengthen the bond between rTRX and rMIF"}]}, {"molecule": "B1", "values": [{"measurement": "internalization of MIF into cells", "setting": "[2]", "value": "inhibits the internalization of MIF into the ATL2 cells"}, {"measurement": "bond between rTRX and rMIF (surface plasmon resonance)", "setting": "[3]", "value": "concentration-dependent"}, {"measurement": "direct bond with rMIF", "setting": "[4]; FIG. 6, Tables 1 and 2", "value": "bonded directly with rMIF"}, {"measurement": "change of the dissociation constant value between oxidation state and reduction state", "setting": "[4]", "value": "almost no changes in the dissociation constant values"}, {"measurement": "Kd", "setting": "[4]; oxidation state", "value": 25.3, "unit": "µM"}, {"measurement": "Kd", "setting": "[4]; [8]", "value": 29.7, "unit": "µM"}, {"measurement": "bond between TRX and MIF in cells", "setting": "[5]", "value": "bonds directly with MIF"}, {"measurement": "bond between TRX and MIF outside cells", "setting": "[6]", "value": "bonds directly with MIF"}, {"measurement": "inhibition of rMIF activity", "setting": "[7]", "value": "inhibits the activity of rMIF depending on the concentration of rTRX"}, {"measurement": "production of MIF-derived TNF-alpha", "setting": "[7]", "value": "inhibits the production of MIF-derived TNF-alpha"}]}, {"molecule": "B2", "values": [{"measurement": "direct bond with rMIF", "setting": "[4]; FIG. 6, Tables 1 and 2", "value": "bonded directly with rMIF"}, {"measurement": "change of the dissociation constant value between oxidation state and reduction state", "setting": "[4]", "value": "almost no changes in the dissociation constant values"}, {"measurement": "Kd", "setting": "[4]; oxidation state", "value": 11.9, "unit": "µM"}, {"measurement": "Kd", "setting": "[4]; [8]", "value": 16.6, "unit": "µM"}]}, {"molecule": "B3", "values": [{"measurement": "direct bond with rMIF", "setting": "[4]; FIG. 6, Tables 1 and 2", "value": "bonded directly with rMIF"}, {"measurement": "strength of the bond with rMIF compared with the other rTRX", "setting": "[4]; FIG. 6, Tables 1 and 2", "value": "stronger than the bond between rWT TRX or rDM TRX and MIF"}, {"measurement": "change of the dissociation constant value between oxidation state and reduction state", "setting": "[4]", "value": "strong bond with rMIF in the oxidation state"}, {"measurement": "Kd", "setting": "[4]; oxidation state", "value": 3.95, "unit": "µM"}]}]}
